Assay: soluble on expression in E. coli; label from the status in PepcDB or PDB records

Row | Sequence | soluble on expression in E. coli
1 | MVFGFLKGVRRRPPLNRACPPIPESKSNESIMSHASRISEHQKAAAAAAATSETTTGDLVIENRNVVDVLHRLDANSNIALPPSSNIRKSKEKKAKMSSTPRSPLMSMANSVKSKLTKITHLGRSSNESSGSSSNIKTSQSFSGIRQPKQIPKRIDQNANRVIKSSSMEVPSTSKVCIPQDPTPLIDDKIEEISEAGLISKSEMAPPKPKEHVCVKLEEDVLVVTKEFDERYPGQKRSASPDVPMVEESQTMSEVDQLPSEQVAETFSEDNVNELDNNANQKTPGPVRRIIQETTTTTITTTTFDSPIPIIEKMEVERPEEAEDVIVIEAPEPVQPPIPSPKKERFTSPERYILLVKTPEALRKHRTLTIGEKDPTEVDTEEKIQYTRLETVKFKEVKEKVKYEEPVPKEKFILTMKTPEAIRRHHTFTIRDKSPEEMNKITKITKSQSDVHVSKRAAKKLVKQASEPERRDLFEEKEDVVPEPKFVIVMKTPECLRRHHTFTIGDRPKSPDYPYIEEGEITEPIATIGPPADRRKKEEAKERKKREWEEYETPPKEKFILTTTTPLAIRKYQTFVVEPKDEKTALPQSASADAVMLAKKGKVQRKNVTSSIQQLSLDEPITSPSRKPVSPEPRHLFVMGGRRSTTPQEDRKVPEPPRNLKLDTDRSQSDHAELLEERKSTMSGDLTSPEEEIPMDTNLTPTTEEVMEAVIVSRRIEGLMTSPIEEEPEGLTSSIRDLSIRSLAKETERPAPVFTPPSPPKENPFHVMTVPKSTLTSSSESAMPMTSSSSSIRAKPNQLPIKKTIQVVDPMHIVELKPEHKSKKEALAAKSLRNAGKMLTPSFLRKEKKGPKKSLYAKTTSSGRQHISEKKEK | not soluble
2 | MRILPQIMAAIVLASPALSQCGGGFSSFVDGLKAEAVSMGHDAALVDRFFQGAAQDAKVLKADRAQGVFQKPFVEFSRRLISQNRLDTGKAMGRKYDAVFDRIEAEYGVSRGVLLAFWAFETDFGGFQGDFNTRNALITLAHDCRRPELFRPQIFAAIELYSHGDFDPARTTGAWAGEIGMVQMLPRDILENGVDGDGDGHVTLKTSAPDALMSGARMLSHLGWRAGEPWLQEVTLPAQMDWSLSGPGKPRSAGEWQAMGVRPRAGDLADLPASLILPQGHKGPAFLAYPNFDVYFEWNQSFVYVLTAAYFGTRLEGGQVYDAGNPAPGLDGAGMKALQQKLQARGHDVGKIDGILGAGTRAAVQAEQARLGLPADAWPTAELLNRL | not soluble
3 | MRRYLMDYSQYNLEKTGYLKEDFRLFHINDQTKKDFSYHYHDFHKIIVFISGKVTYHIEGKAYHLKPRDILLVSQGAIHKPEIDPSVPYERYIFWIRDDLSCQELNTCFQKANDRSFNLVRADSALQERLKDLLPEIEQTLQNKHFGDTVLRNALFTQFMIYINRIFLRTSSSPDKKTYSSDTQ | not soluble
4 | GSHMGKDCIMHGYMSKMGNPFLTQWQRRYFYLFPNRLEWRGEGEAPQSLLTMEEIQSVEETQIKERKCLLLKIRGGKQFILQCDSDPELVQWKKELRDAYREAQQLVQRVPKMKNKPRS | soluble
5 | MIVEPMTKPRKPTVQRCQSFFTNGANHFYCKKSTHDGGRTHNLLIRSQTRCHYATRATVCWKFSIINKYIPTLANITITTLRKLYKRFIDRESLFLIFFRKDEHIVQNIIN | soluble
6 | MGSDKIHHHHHHVGEHGNVNLRAENCRLKGKDIIVLYRDELDLSSEQWLELLQDNTVFKDEDILLVLELYKCNNCREYASVLADSLGVASHSVLNLQIGRLGKRIIARYPDIKYPTREDGVVRYWHIPFWGEDGEKKGHYYWQLRPELKEALKMLKSNQKRKIFALHGEVQLAQEVDEEQTEKLYEGAKIQIVVNAYERNIKARQICIDKYGYKCSICDFDFEEFYGMLGSDYIEVHHLIPLHEINKEYRVDPINDLRPVCPNCHAMLHRAGISYEELKNKIESEC | not soluble
7 | MTTLLRLATAGSVDDGKSTLIGRLLYDSKAVMEDQWASVEQTSKDRGHDYTDLALVTDGLRAEREQGITIDVAYRYFATPKRKFIIADTPGHIQYTRNMVTGASTAQLVIVLVDARHGLLEQSRRHAFLASLLGIRHLVLAVNKMDLLGWDQEKFDAIRDEFHAFAARLDVQDVTSIPISALHGDNVVTKSDQTPWYEGPSLLSHLEDVYIAGDRNMVDVRFPVQYVIRPHTLEHQDHRSYAGTVASGVMRSGDEVVVLPIGKTTRITAIDGPNGPVAEAFPPMAVSVRLADDIDISRGDMIARTHNQPRITQEFDATVCWMADNAVLEPGRDYVVKHTTRTVRARIAGLDYRLDVNTLHRDKTATALKLNELGRVSLRTQVPLLLDEYTRNASTGSFILIDPDTNGTVAAGMVLRDVSARTPSPNTVRHRSLVTAQDRPPRGKTVWFTGLSGSGKSSVAMLVERKLLEKGISAYVLDGDNLRHGLNADLGFSMADRAENLRRLSHVATLLADCGHLVLVPAISPLAEHRALARKVHADAGIDFFEVFCDTPLQDCERRDPKGLYAKARAGEITHFTGIDSPYQRPKNPDLRLTPDRSIDEQAQEVIDLLESSS | not soluble
8 | MGSDKIHHHHHHNSALEWLQRAASAAKEQNYSGIYVYHHGDEVEVLRVLHRNDGRREQEKTEVMDGTQRHFLRVNSDVYCHLADGKQVRLERNASRRFFPAFLPARAAGLAELYEVKLGGVERVAGRPCQVVMLEPRDGYRHAFQLWLDSRTGLPLKSRIVNSDGEVVSMFVFSEVQIGRPPDASLFRNELAGKQVQQVSLGQRIDLPWSVTPPPGFERVQEAVRTLPGRNTPVTHLVFSDGLSVLSMFIEPADPGVPSLQGLSAEGAIGVYARALDGHTITTVGEVPNLALIETGNSVRRK | not soluble
9 | MKDWLDEIHWNADGLVPAIAQDHETGRVLMMAWMNREALALTASENRAIYWSRSRGKLWRKGEESGHVQKLHELRLDCDADVVILMVEQVGGIACHTGRESCFYRVFENGAWKTVDPVLKDPDAIYEHAGHHHE | not soluble
10 | MVDSYDDSLDGEKSKTQVKRELHALVDLGERLTTLKADVLAKLPLTDALRKALAEAPKHTANIARKRHILFIGKLMRDQDQEAILVLLDQLDASTRQYNERFHNLERWRDRLIAGDDADLEKFVIEYPDADRQQLRSLIRQAQHEVARNKPPATSRKIFKYIRELDELQRGLR | not soluble
11 | MSDPYPATEAHAQRAAKSPPKSLLDRLLSLVRREPEDREGIKAILEAAHERELLDAESYAMIKGALAVSERTVADIMVPRSRMDLLDISQPLPQLLATIIETAHSRFPVYEDDRDNIIGILLAKDLLRYMLEPALDIRSLVRPAVFIPEVKRLNVLLREFRASRNHLAIVIDEHGGISGLVTMEDVLEQIVGDIEDEFDEDEEESIFPEGENQWRLTASTDISHFNATFATDLPDDEYDSVGGWLGGQLGRIPRRGDSADHDGLHIEVVRADARRALWLRVRRNAGAQPPASAAE | soluble
12 | MSGFKWSPDQKWISFLAVPTASWSADSNTLCLVRADGSRFEKVDQMLLNAQWFQWAPSKNILAYIEGSGRVALENKHLKVKELPALQQNIFTPKGYVDWDFVWKNDRVIIVSRAKEAGIETPPEKRPLPSLYEVDSTSNAQHQITKKTNKQGDYHPIFMKKSNQLIWIRSDRKKADVWLAHKDRKQEKKWIENIDVPAWYYEKWNWGNVISVKEELEHHHHHH | not soluble
13 | SVLPETPVPFKSGTGAIDNDTVYIGLGSAGTAWYKLDTQAKDKKWTALAAFPGGPRDQATSAFIDGNLYVFGGIGKNSEGLTQVFNDVHKYNPKTNSWVKLMSHAPMGMAGHVTFVHNGKAYVTGGVNQNIFNGYFEDLNEAGKDSTAIDKINAHYFDKKAEDYFFNKFLLSFDPSTQQWSYAGESPWYGTAGAAVVNKGDKTWLINGEAKPGLRTDAVFELDFTGNNLKWNKLAPVSSPDGVAGGFAGISNDSLIFAGGAGFKGSRENYQNGKNYAHEGLKKSYSTDIHLWHNGKWDKSGELSQGRAYGVSLPWNNSLLIIGGETAGGKAVTDSVLITVKDNKVTVQNLEHHHHHH | soluble
14 | TVPDFSAFAVEVPALKSNDEAIDAQIDKLRERFGELKDTKRKLKTDDFAIIDIEAAIDGEKLEEATTEGMSYQVGAGDLIDGLDTALRGLKAGESAEFTTTLKAGEHEGKEAAVTVTVQQTKERKLPELDEEFVQTASEFDTVEELRESIAEQVAEQAKAEQATAIRDEVLKAALAEATFELPEGVVEDQIHAQLHQLLNQVGGDEAALNAALEAQGTSREQFDADNRKNSEEAVRTQLFLDALAEQEQPEVSQQELTDHILFTAQSYGMDPNQFITQLQQSGQIGNLFSDVRRGKALAAAICRVSVKDDEGKAVDPSEYFGEEEESAEESE | not soluble
15 | MTKPAKIGVLLANLGTPDSPTPKSISRYLWQFLTDPRVVDLPRCKWYPLLKAIILPLRSKRIAKNYQAIWTEQGSPLLAISRQQKDALQAYLDNQNIDTQVEIAMTYGNPSMQSAVKNLLKNQVERIIVLPLYPQYSSSTTGAVFDAFANALKEERGLLPFDFIHSYHIDENYINALADSIKVRLKSDEFLLFSYHGIPLRYEKMGDYYREHCKQTTIAVVNKLGLTENQWRMTFQSRFGREEWLQPYTDKFLESAAAQNIQKIAVICPGFSVDCLETIEEIDEENRENFLNNGGQSYQYIPALNVEHAHIEMMGKLILEKLT | not soluble
16 | GSSKSWANHENKTVNKITVVGGGELGIACTLAISAKGIADRLVLLDLSEGTKGATMDLEIFNLPNVEISKDLSASAHSKVVIFTVNSLGSSQSYLDVVQSNVDMFRALVPALGHYSQHSVLLVASQPVEIMTYVTWKLSTFPANRVIGIGCNLDSQRLQYIITNVLKAQTSGKEVWVIGEQGEDKVLTWSGQEEVVSHTSQVQLSNRAMELLRVKGQRSWSVGLSVADMVDSIVNNKKKVHSVSALAKGYYDINSEVFLSLPCILGTNGVSEVIKTTLKEDTVTEKLQSSASSIHSLQQQLKL | soluble
17 | DGPGDGFTILSSKSLVLGQKLSLTQSDISHIGSMRVEGIVHPTTAEIDLKEDIGKALEKAGGKEFLETVKELRKSQGPLEVAEAAVSQSSGLAAKFVIHCHIPQWGSDKCEEQLEETIKNCLSAAEDKKLKSVAFPPFPSGRNCFPKQTAAQVTLKAISAHFDDSSASSLKNVYFLLFDSESIGIYVQEMAKL | soluble

— the DeepSol protein solubility set
